Results taken from patent publication US20230242601A1, “PEPTIDE USED TO PREVENT OR TREAT SYNUCLEINOPATHY” (TOHOKU UNIVERSITY, priority 2020, published 2023).

Molecular target: FABP3 fused with a His-tag at the N-terminus
Assay: QCM, peptide added to immobilised FABP3

FABP3 fused with a His-tag at the N-terminus, sequence (P05413 2-133): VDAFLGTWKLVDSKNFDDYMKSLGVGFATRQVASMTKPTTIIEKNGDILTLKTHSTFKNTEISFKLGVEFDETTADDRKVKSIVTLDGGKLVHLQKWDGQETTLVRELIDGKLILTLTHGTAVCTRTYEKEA

Row | Kd [nM] | fold stronger binding affinity against the natural SynP130-140 [fold] | Binder
1 | 0.2 |  | EEGYQDYEPEA [SynP130-140 peptide]
2 | 0.1 | 2 | EEGFQDYEPEA [SynP130-140 Y133F]
3 |  | 2 | EEGFQDFEPEA [SynP130-140 Y133F/Y136F]
